# Results: US20020147326A1, “Hexameric fusion proteins and uses therefor” (SmithKline Beecham Corporation, priority 1996, published 2002)
# Key:
# [1] = target: T1, human CD28 on PCD28.1.s2.1 cells (Homo sapiens, UniProt P10747); assay: Flow cytometry binding to cells expressing cell-surface CD28; assay type: cell-based; settings: on ice
# T1 construct: expressed in transfected cells; host or cells: PCD28.1.s2.1 (PE30.2 murine T-cell hybridoma transfected with pHbactCd28neo)
# Method: Non-adherent CD28 expressing cells (PCD28.1.s2.1) were used for this assay format. PCD28.1.S2.1 cells were created by transfection of PE30.2 cells [D. Emilie et al., Eur. J. Immunol., 19:1619-1624 (1989)] with a vector for expression of human CD28 [D. Couez et al., Molecular Immunology, 31:47-57 (1994)]. All incubations were carried out on ice. Unlabelled CD80- and CD86-Igαtp or CD80 and CD86-Ig were incubated with the cells in binding buffer consisting of PBS w/o Ca+2/Mg+2, 0.2% bovine serum albumin and 0.1 % sodium azide. After washing twice in binding buffer, bound fusion proteins were detected with a 1:2000 dilution of a goat anti-human polyclonal antibody labeled with FITC (Flourescein isothiocyanate, Southern Biotech). Following two additional washes in binding buffer, the cells were resuspended in binding buffer and analyzed on a FACSort analyzer (Becton-Dickinson) using a 488 nm laser.
# [2] = target: T2, CD28-Ig (Homo sapiens, UniProt P10747); assay: Isothermal titration calorimetry, binding to CD28-Ig in solution; set-up: native leader and extracellular domain peptide of CD28 and CD80 were grafted onto a human IgG1 heavy chain Fc region; human IgG1 Fc (hinge/CH2/CH3); made in house; host or cells: CHO cells
# Source text: The solution binding properties of the hexameric and standard Ig fusion proteins of CD80 and CD86 were compared using isothermal titration calorimetry, essentially as described previously for other proteins [K. Johanson et. al., J. Biol. Chem, 270: 9459-9471 (1995), and references therein].
# This lower affinity for CD28 than for CTLA4 is in agreement with other reports [P. S. Linsley et. al., Immunity 1: 793-801 (1994)].
# [3] = target: T2, CD28-Ig; assay: ELISA binding of biotinylated fusion proteins to immobilized CD28-Ig; set-up: native leader and extracellular domain peptide of CD28 and CD80 were grafted onto a human IgG1 heavy chain Fc region; human IgG1 Fc (hinge/CH2/CH3); made in house; host or cells: CHO cells; settings: for binding to immobilized CD28-Ig: biotinylated protein, ELISA
# Method: For this assay format, the CD80-Igαtp protein was biotinylated for simplicity of assay and for ease of detection since the CD28 protein absorbed to the plate wells was also a human Ig fusion construct. Biotinylation was carried out essentially as described in Avidin-Biotin Chemistry: A handbook, M. D. Savage et al., Pierce Chemical Company (1992). […] All steps of the assay after coating were carried out at room temperature.
# The wells of 96 well microtiter plates (Immunlon 4, Dynatech Laboratories) were coated with CD28-Ig (1, 2, or4 μg/ml) in 100 μl/well of 0.1 M sodium bicarbonate, pH 9.4 and incubated overnite @4° C. The wells were washed with PBS (phosphate buffered saline) and blocked with 0.5% gelatin in PBS for 1 hour. Following an additional PBS wash, biotinylated CD80-Igαtp was serially diluted in PBS containing 1 mg/ml BSA, 0.05% Tween directly in the wells in a final volume of 0.1 ml and incubated for 1 hour. The wells were washed with PBS and bound CD80-Igαtp protein was measured by the addition of 0.1 ml of strepavidin-HRP (streptavidin conjugated with horseradish peroxidase (Southern Biotech)) at a 1:2000 dilution for 1 hour, followed by washing and color development with 100 μl ABTS substrate (Kierkegaard and Perry Laboratories Inc., Maryland) and measurement of absorbance at 405 nm. In some cases the color reactions were arrested by addition of 100 μl of 1% SDS prior to measurement of absorbance. In this figure, “CD28-Fc”, “CTLA4-Fc”, and “B7-FcA” denote CD28-Ig, CTLA4-Ig, and CD80-Igαtp, respectively.
binding to CD28 positive cells [1],interaction with CD28-Ig in solution by calorimetry [2],binding to immobilized CD28-Ig [3],saturation of OD405 ([3]; biotinylated CD80-Igαtp at 50 μg/ml),Substance
specific binding,did not show detectable binding,good binding,–,CD86-Igαtp: CD86 leader and extracellular domain linked to human IgG1 Fc and terminating in human IgA1 tailpiece (αtp)
specific binding,did not show detectable binding,concentration dependent binding,about 50%,CD80-Igαtp: CD80 leader and extracellular domain linked to human IgG1 hinge/CH2/CH3 and terminating in human IgA1 tailpiece (αtp)

Substance,binding to CD28 positive cells [1],interaction with CD28-Ig in solution by calorimetry [2],binding to immobilized CD28-Ig [3],saturation of OD405 ([3]; biotinylated CD80-Igαtp at 50 μg/ml)
CD80-Ig: CD80 leader and extracellular domain grafted onto human IgG1 heavy chain Fc region; monomeric Ig fusion (Ig homodimer) [reference compound],no binding,not detected,little binding and only at much higher concentrations,–
